Experimental data taken from patent US20200016266A1.

Target: recombinant extracellular domain of human VEGFR2 (rhVEGFR2), expressed in human cells (Sino Biological Inc.) (human) (UniProt P35968)
Assay: FRET fluorescence spectroscopy, 0.5 µM 488-VEGFR2 titrated with 594-Gal1, emission at 518 nm

Chain of recombinant extracellular domain of human VEGFR2 (rhVEGFR2), expressed in human cells (Sino Biological Inc.) (human) (P35968 20-764 limits assumed): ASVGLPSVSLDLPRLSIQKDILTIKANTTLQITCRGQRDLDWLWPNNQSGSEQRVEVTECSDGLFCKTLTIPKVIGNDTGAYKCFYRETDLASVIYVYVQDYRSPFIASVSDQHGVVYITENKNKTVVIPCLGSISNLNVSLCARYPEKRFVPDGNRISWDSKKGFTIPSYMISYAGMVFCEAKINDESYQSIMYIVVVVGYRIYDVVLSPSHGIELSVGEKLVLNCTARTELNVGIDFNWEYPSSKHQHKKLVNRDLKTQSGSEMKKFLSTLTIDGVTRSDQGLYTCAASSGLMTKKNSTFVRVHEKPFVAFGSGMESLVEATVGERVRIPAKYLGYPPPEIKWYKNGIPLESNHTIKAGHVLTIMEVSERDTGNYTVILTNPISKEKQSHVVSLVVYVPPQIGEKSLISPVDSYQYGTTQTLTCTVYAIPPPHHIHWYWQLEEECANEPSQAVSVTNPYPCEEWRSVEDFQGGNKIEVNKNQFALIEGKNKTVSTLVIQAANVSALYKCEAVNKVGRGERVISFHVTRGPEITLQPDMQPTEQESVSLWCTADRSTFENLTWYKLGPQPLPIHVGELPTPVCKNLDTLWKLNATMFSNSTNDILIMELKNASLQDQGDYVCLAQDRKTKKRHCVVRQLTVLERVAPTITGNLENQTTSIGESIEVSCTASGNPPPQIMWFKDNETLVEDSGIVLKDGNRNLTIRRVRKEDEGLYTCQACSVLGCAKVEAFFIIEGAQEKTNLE

Galectin-1 (human recombinant Gal1) (from UniProt P09382 2-135) (ligand)
EC50 (read off the curve): 7 µM
